Laboratory results as given in patent US20220363731A1 (LETO LABORATORIES, published 2022).
Blank lines part the entries; values can stand above or below the binder they belong to.

Key:
IL2Rβγ-Fc [1] = biological target: T1, IL2Rβγ-Fc (UniProt P14784 27-240; P31785 23-262, limits assumed); test: BLI (Fortebio Octet RED96), IL2Rβγ-Fc loaded on ProA sensor, analyte 2.5-40 nM as labelled; R2 0.998
T1 construct: From Beijing Zhidao Biotechnology, loaded on ProA sensors; also called IL2Rβγ receptors; complex of β and γ receptor subunits; not shown: Fc
T1 sequence (looked up) 1: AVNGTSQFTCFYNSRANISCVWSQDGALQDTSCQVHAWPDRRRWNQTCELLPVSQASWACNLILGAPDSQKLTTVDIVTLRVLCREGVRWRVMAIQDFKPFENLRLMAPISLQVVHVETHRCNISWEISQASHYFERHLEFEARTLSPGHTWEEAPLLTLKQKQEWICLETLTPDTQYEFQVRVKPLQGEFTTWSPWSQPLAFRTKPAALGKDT
T1 sequence (looked up) 2: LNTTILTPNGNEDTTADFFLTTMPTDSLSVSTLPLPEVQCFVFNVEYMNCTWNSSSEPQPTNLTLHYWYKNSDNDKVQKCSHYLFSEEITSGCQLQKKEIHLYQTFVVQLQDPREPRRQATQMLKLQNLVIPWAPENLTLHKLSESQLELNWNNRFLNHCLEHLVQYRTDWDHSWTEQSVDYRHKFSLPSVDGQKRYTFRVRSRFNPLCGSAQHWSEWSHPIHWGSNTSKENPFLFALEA
Experimental: (§1) The buffer formulation was as follows: 10 mM HEPES, 150 mM sodium chloride, 3 mM EDTA, 0.1% BSA and 0.05% Tween 20. The ProA sensor was purchased from Pall Fortebio (Cat. No. #18-5010). The HISIK sensor was purchased from Pall Fortebio (Cat. No. #18-5120). The BLI equipment was Octet RED96 from Pall Fortebio. Data acquisition and analysis were carried out using software Data acquisition 11.0 and Data Analysis 11.0, respectively.
(§2) IL2Rβγ-Fc was diluted with the buffer solution to a concentration of 10 μg/mL, and then added to column 2 of the 96-well assay plate. The program was set to Loading, 600 s.
(§3) 8 ProA sensors were respectively placed in A-H of column 1 of the sensor holder. In the software Data acquisition 11.0, the detection conditions were set as follows. 1 Pre-wetting: Baseline, 60 s, Position: Column 1. 2 Cycle detection: column 2: loading, 600 s; column 4: Baseline 1, 60 s; columns 5-9: Association, 200 s; column 10: Dissociation, 600 s; column 11: neutralization; and column 12: regeneration.

IL2Rα-his = biological target: T2, IL2Rα-his (UniProt P01589 22-217, limits assumed); test: BLI (Fortebio Octet RED96), IL2Rα-his loaded on HIS1K sensor, analyte at 100 nM
T2 construct: From Beijing Zhidao Biotechnology, loaded on HIS1K sensors; also called IL2Rα receptor; α receptor subunit; not shown: his tag
T2 sequence (looked up): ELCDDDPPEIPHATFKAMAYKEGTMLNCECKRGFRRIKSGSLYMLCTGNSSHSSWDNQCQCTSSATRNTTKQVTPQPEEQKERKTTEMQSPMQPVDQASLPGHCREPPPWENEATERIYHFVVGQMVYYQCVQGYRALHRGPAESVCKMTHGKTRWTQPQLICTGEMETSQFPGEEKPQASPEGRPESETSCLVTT
Experimental: as §1
IL2Rα-his was diluted with the buffer solution to a concentration of 10 μg/mL, and then added to column 3 of the 96-well assay plate. The program was set to Loading, 600 s.

IL2Rβγ-Fc [2] = biological target: T1, IL2Rβγ-Fc; test: BLI (Fortebio Octet RED96), IL2Rβγ-Fc loaded on ProA sensor, analyte 1.25-40 nM; R2 0.9972
Experimental: as §2
(§4) They were added to columns 5-9 of the 96-well assay plate, respectively. The program was set to Association, 200 s. The buffers were added to columns 1, 4, 10 and 11 of the 96-well assay plate, and the glycine with pH 1.7 was added to column 12. The loading volume of the above samples or solutions was 200 μL.
as §3

IL2Rβγ-Fc [3] = biological target: T1, IL2Rβγ-Fc; test: BLI (Fortebio Octet RED96), IL2Rβγ-Fc loaded on ProA sensor, analyte 2.5-40 nM as labelled; R2 0.9984
Experimental: as §1, §2, §3

IL2Rβγ-Fc [4] = biological target: T1, IL2Rβγ-Fc; test: BLI (Fortebio Octet RED96), IL2Rβγ-Fc loaded on ProA sensor, analyte 1.25-40 nM; R2 0.9953
Experimental: as §2, §4, §3

Kd (IL2Rβγ-Fc [1]): 560 pM
B1: IL-2 Mutant 1, IL-2 (M39C, V69C, C125A) (ligand)
chain: APTSSSTKKTQLQLEHLLLDLQMILNGINNYKNPKLTRCLTFKFYMPKKATELKHLQCLEEELKPLEECLNLAQSKNFHLRPRDLISNINVIVLELKGSETTFMCEYADETATIVEFLNRWITFAQSIISTLT
notes: Designed to form an intramolecular disulfide bond between Cys39 and Cys69; not shown: HPC4 tag at the C-terminus

binding result (IL2Rα-his): no binding (tested: 100 nM)
Kd (IL2Rβγ-Fc [2]): 268 pM
B2: IL-2 Mutant 4, IL-2 (F42C, V69C, C125A) (ligand)
chain: APTSSSTKKTQLQLEHLLLDLQMILNGINNYKNPKLTRMLTCKFYMPKKATELKHLQCLEEELKPLEECLNLAQSKNFHLRPRDLISNINVIVLELKGSETTFMCEYADETATIVEFLNRWITFAQSIISTLT
notes: Designed to form an intramolecular disulfide bond between Cys42 and Cys69; not shown: HPC4 tag at the C-terminus

Kd (IL2Rβγ-Fc [3]): 660 pM
B3: IL-2 Mutant 3, IL-2 (F44C, P65C, C125A) (ligand)
chain: APTSSSTKKTQLQLEHLLLDLQMILNGINNYKNPKLTRMLTFKCYMPKKATELKHLQCLEEELKCLEEVLNLAQSKNFHLRPRDLISNINVIVLELKGSETTFMCEYADETATIVEFLNRWITFAQSIISTLT
notes: Designed to form an intramolecular disulfide bond between Cys44 and Cys65; not shown: HPC4 tag at the C-terminus

binding result (IL2Rα-his): no binding (tested: 100 nM)
Kd (IL2Rβγ-Fc [4]): 675 pM
B4: IL-2 Mutant 2, IL-2 (F44C, E62C, C125A) (ligand)
chain: APTSSSTKKTQLQLEHLLLDLQMILNGINNYKNPKLTRMLTFKCYMPKKATELKHLQCLEECLKPLEEVLNLAQSKNFHLRPRDLISNINVIVLELKGSETTFMCEYADETATIVEFLNRWITFAQSIISTLT
notes: Designed to form an intramolecular disulfide bond between Cys44 and Cys62; not shown: HPC4 tag at the C-terminus
